Laboratory results: patent US20160120951A1 (ZEALAND PHARMA A S, published 2016)
Numbered stars: 1 amine (or outer) side, 2 acyl side, 3 side chain; on linkers, the order of the positions; unused ones are H or OH. Square brackets hold non-standard residues; d marks the D form. Side chains are listed from the residue outwards. Ends that are not written are not given here. * marks the point of attachment. γGlu = O=C(O)[C@H](CCC(=O)[*:2])N[*:1]; Palmitoyl = CCCCCCCCCCCCCCCC(=O)*; Aib = CC(C)(N)C(=O)O

B1: Compound 17 (peptide)
peptide: HXQGTFTSDYSKYLDSKAAHDFVEWLLSA
modifications: Aib at position 2; K(Hexadecanoyl-ε-Lys) at position 17; C-terminal amide (NH2)
B2: Compound 11 (peptide)
peptide: H-H[Aib]QGTFTSDYSKYLDSK([γGlu-Palmitoyl])AAHDFVEWLLRA-NH2
SMILES: CCCCCCCCCCCCCCCC(=O)N[C@@H](CCC(=O)NCCCC[C@H](NC(=O)[C@H](CO)NC(=O)[C@H](CC(=O)O)NC(=O)[C@H](CC(C)C)NC(=O)[C@H](Cc1ccc(O)cc1)NC(=O)[C@H](CCCCN)NC(=O)[C@H](CO)NC(=O)[C@H](Cc1ccc(O)cc1)NC(=O)[C@H](CC(=O)O)NC(=O)[C@H](CO)NC(=O)[C@@H](NC(=O)[C@H](Cc1ccccc1)NC(=O)[C@@H](NC(=O)CNC(=O)[C@H](CCC(N)=O)NC(=O)C(C)(C)NC(=O)[C@@H](N)Cc1c[nH]cn1)[C@@H](C)O)[C@@H](C)O)C(=O)N[C@@H](C)C(=O)N[C@@H](C)C(=O)N[C@@H](Cc1c[nH]cn1)C(=O)N[C@@H](CC(=O)O)C(=O)N[C@@H](Cc1ccccc1)C(=O)N[C@H](C(=O)N[C@@H](CCC(=O)O)C(=O)N[C@@H](Cc1c[nH]c2ccccc12)C(=O)N[C@@H](CC(C)C)C(=O)N[C@@H](CC(C)C)C(=O)N[C@@H](CCCNC(=N)N)C(=O)N[C@@H](C)C(N)=O)C(C)C)C(=O)O
B3: Compound 2 (peptide)
peptide: HSQGTFTSDYSKYLDK([γGlu-Palmitoyl])KAAHDFVEWLLRA-NH2
modifications: N-terminus assumed
SMILES: CCCCCCCCCCCCCCCC(=O)N[C@@H](CCC(=O)NCCCC[C@H](NC(=O)[C@H](CC(=O)O)NC(=O)[C@H](CC(C)C)NC(=O)[C@H](Cc1ccc(O)cc1)NC(=O)[C@H](CCCCN)NC(=O)[C@H](CO)NC(=O)[C@H](Cc1ccc(O)cc1)NC(=O)[C@H](CC(=O)O)NC(=O)[C@H](CO)NC(=O)[C@@H](NC(=O)[C@H](Cc1ccccc1)NC(=O)[C@@H](NC(=O)CNC(=O)[C@H](CCC(N)=O)NC(=O)[C@H](CO)NC(=O)[C@@H](N)Cc1c[nH]cn1)[C@@H](C)O)[C@@H](C)O)C(=O)N[C@@H](CCCCN)C(=O)N[C@@H](C)C(=O)N[C@@H](C)C(=O)N[C@@H](Cc1c[nH]cn1)C(=O)N[C@@H](CC(=O)O)C(=O)N[C@@H](Cc1ccccc1)C(=O)N[C@H](C(=O)N[C@@H](CCC(=O)O)C(=O)N[C@@H](Cc1c[nH]c2ccccc12)C(=O)N[C@@H](CC(C)C)C(=O)N[C@@H](CC(C)C)C(=O)N[C@@H](CCCNC(=N)N)C(=O)N[C@@H](C)C(N)=O)C(C)C)C(=O)O
B4: Compound 3 (peptide)
peptide: H-HSQGTFTSDYSKYLDSK([γGlu-Palmitoyl])AAHDFVEWLLRA-NH2
SMILES: CCCCCCCCCCCCCCCC(=O)N[C@@H](CCC(=O)NCCCC[C@H](NC(=O)[C@H](CO)NC(=O)[C@H](CC(=O)O)NC(=O)[C@H](CC(C)C)NC(=O)[C@H](Cc1ccc(O)cc1)NC(=O)[C@H](CCCCN)NC(=O)[C@H](CO)NC(=O)[C@H](Cc1ccc(O)cc1)NC(=O)[C@H](CC(=O)O)NC(=O)[C@H](CO)NC(=O)[C@@H](NC(=O)[C@H](Cc1ccccc1)NC(=O)[C@@H](NC(=O)CNC(=O)[C@H](CCC(N)=O)NC(=O)[C@H](CO)NC(=O)[C@@H](N)Cc1c[nH]cn1)[C@@H](C)O)[C@@H](C)O)C(=O)N[C@@H](C)C(=O)N[C@@H](C)C(=O)N[C@@H](Cc1c[nH]cn1)C(=O)N[C@@H](CC(=O)O)C(=O)N[C@@H](Cc1ccccc1)C(=O)N[C@H](C(=O)N[C@@H](CCC(=O)O)C(=O)N[C@@H](Cc1c[nH]c2ccccc12)C(=O)N[C@@H](CC(C)C)C(=O)N[C@@H](CC(C)C)C(=O)N[C@@H](CCCNC(=N)N)C(=O)N[C@@H](C)C(N)=O)C(C)C)C(=O)O
B5: Compound 4 (peptide)
peptide: H-HSQGTFTSDYSKYLDSKAAK([γGlu-Palmitoyl])DFVEWLLRA-NH2
SMILES: CCCCCCCCCCCCCCCC(=O)N[C@@H](CCC(=O)NCCCC[C@H](NC(=O)[C@H](C)NC(=O)[C@H](C)NC(=O)[C@H](CCCCN)NC(=O)[C@H](CO)NC(=O)[C@H](CC(=O)O)NC(=O)[C@H](CC(C)C)NC(=O)[C@H](Cc1ccc(O)cc1)NC(=O)[C@H](CCCCN)NC(=O)[C@H](CO)NC(=O)[C@H](Cc1ccc(O)cc1)NC(=O)[C@H](CC(=O)O)NC(=O)[C@H](CO)NC(=O)[C@@H](NC(=O)[C@H](Cc1ccccc1)NC(=O)[C@@H](NC(=O)CNC(=O)[C@H](CCC(N)=O)NC(=O)[C@H](CO)NC(=O)[C@@H](N)Cc1c[nH]cn1)[C@@H](C)O)[C@@H](C)O)C(=O)N[C@@H](CC(=O)O)C(=O)N[C@@H](Cc1ccccc1)C(=O)N[C@H](C(=O)N[C@@H](CCC(=O)O)C(=O)N[C@@H](Cc1c[nH]c2ccccc12)C(=O)N[C@@H](CC(C)C)C(=O)N[C@@H](CC(C)C)C(=O)N[C@@H](CCCNC(=N)N)C(=O)N[C@@H](C)C(N)=O)C(C)C)C(=O)O
B6: Compound 1 (peptide)
peptide: H-HSQGTFTSDYSKYLDSKAAHDFVEWLLRA-NH2

Target: human glucagon-like peptide 1 receptor (GLP-1R) (human, UniProt P43220 24-463)
Sequence (P43220 24-463): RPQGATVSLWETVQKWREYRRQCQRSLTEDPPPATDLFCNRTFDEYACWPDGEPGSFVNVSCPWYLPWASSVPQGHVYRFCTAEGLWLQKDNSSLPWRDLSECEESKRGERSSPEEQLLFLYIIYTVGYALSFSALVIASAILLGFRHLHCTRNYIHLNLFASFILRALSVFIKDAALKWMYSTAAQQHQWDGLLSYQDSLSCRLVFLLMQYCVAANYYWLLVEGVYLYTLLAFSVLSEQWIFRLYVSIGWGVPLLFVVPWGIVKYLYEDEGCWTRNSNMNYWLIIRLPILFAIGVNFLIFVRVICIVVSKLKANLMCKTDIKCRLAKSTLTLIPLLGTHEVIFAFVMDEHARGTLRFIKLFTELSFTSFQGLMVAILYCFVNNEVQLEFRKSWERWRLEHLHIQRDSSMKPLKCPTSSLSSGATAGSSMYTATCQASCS
Assay: cell-based or functional assay

Row | EC50 (nM) GLP-1R, cAMP formation [nM] | Binder
1 | 0.09 | B1
2 | 0.09 | B2
3 | 0.2 | B3
4 | 0.11 | B4
5 | 0.1 | B5
6 | 0.06 | B6

Target: T1, human glucagon receptor (Glucagon-R) (human, UniProt P47871 26-477)
Assay: cell-based or functional assay

Row | EC50 (nM) GluR, cAMP formation [nM] | Binder
7 | 0.39 | B1
8 | 0.16 | B2
9 | 0.13 | B3
10 | 0.12 | B4
11 | 0.04 | B5
12 | 0.06 | B6

Target: T1, human glucagon receptor (Glucagon-R)
Assay: cell-based or functional assay
Remark: another data set of the same source

Row | GluR EC50 (nM) (1), cAMP formation in primary human hepatocytes | GluR EC50 (nM) (2), cAMP formation in primary human hepatocytes | GluR EC50 (nM) (log avg), cAMP formation in primary human hepatocytes | Binder
13 | 32.9 | 25.5 | 28.9 | B2
14 | 1.4 | 2.2 | 1.8 | B6
